This note sets out measurements from the Human Domainome abundance scans (Beltran et al. 2025).

± gives the uncertainty stated by the source.

The chains are these.
B1: GA-binding protein alpha chain, residues 172 to 250; numbered along this chain, Q06546 (parent)
chain: GYRKEQERLGIPYDPIQWSTDQVLHWVVWVMKEFSMTDIDLTTLNISGRELCSLNQEDFFQRVPRGEILWSHLELLRKY

In this data set the parent is B1. The data set is described as follows: abundance fitness (aPCA) (normalised: wild type 0, dead -1); higher = more abundant; growth selection in yeast, the domain comes from the species named. The note with it: Homo sapiens.
For the variant GYRKEQERLGIPYDPIQWSTDQVLHWVVWVMKEFSMTDIDLTTLNISGRELCSLNQEDFFQRVPRDEILWSHLELLRKY [G66D], the abundance fitness is -0.889 ± 0.13. Regarding GYRKEQERLGIPYDPIQWSTDQVLHWVVWVMKEFSMTDIDLTTLNISGRELCSLNQEDFFQRVPRGEIDWSHLELLRKY [L69D], the abundance fitness was -0.758 ± 0.38. Turning to GYRKEQERLGIPYDPIQWSTDQVLHWVVWVMKEFSMTDIDLTTLNISGRELCSLNQEDFFQRVPRGEIMWSHLELLRKY [L69M], the abundance fitness is -0.124 ± 0.051. As to GYRKEQERLGIPYDPIQWSTDQVLHWVVWVMKEFSMTDIDLTTLNISGRELCSLNQEDFFQRVPRGEINWSHLELLRKY [L69N], the abundance fitness is -0.974 ± 0.46. As for GYRKEQERLGIPYDPIQWSTDQVLHWVVWVMKEFSMTDIDLTTLNISGRELCSLNQEDFFQRVPRGEIIWSHLELLRKY [L69I], the abundance fitness is -0.499 ± 0.19. In the case of GYRKEQERLGIPYDPIQWSTDQVLHWVVWVMKEFSMTDIDLTTLNISGRELCSLNQEDFFQRVPRGEIGWSHLELLRKY [L69G], the abundance fitness is -1.04 ± 0.089. The same measure for GYRKEQERLGIPYDPIQWSTDQVLHWVVWVMKEFSMTDIDLTTLNISGRELCSLNQEDFFQRVPRGEIHWSHLELLRKY [L69H]: -0.259 ± 0.14; for GYRKEQERLGIPYDPIQWSTDQVLHWVVWVMKEFSMTDIDLTTLNISGRELCSLNQEDFFQRVPRGEIKWSHLELLRKY [L69K]: -1 ± 0.33. The result for GYRKEQERLGIPYDPIQWSTDQVLHWVVWVMKEFSMTDIDLTTLNISGRELCSLNQEDFFQRVPRGEIWWSHLELLRKY [L69W] reads -0.432 ± 0.044; that for GYRKEQERLGIPYDPIQWSTDQVLHWVVWVMKEFSMTDIDLTTLNISGRELCSLNQEDFFQRVPRGEICWSHLELLRKY [L69C], -0.57 ± 0.069; that for GYRKEQERLGIPYDPIQWSTDQVLHWVVWVMKEFSMTDIDLTTLNISGRELCSLNQEDFFQRVPRGEIVWSHLELLRKY [L69V], -0.393 ± 0.04. In the case of GYRKEQERLGIPYDPIQWSTDQVLHWVVWVMKEFSMTDIDLTTLNISGRELCSLNQEDFFQRVPRGEIFWSHLELLRKY [L69F], the abundance fitness was -0.027 ± 0.061. The same measure for GYRKEQERLGIPYDPIQWSTDQVLHWVVWVMKEFSMTDIDLTTLNISGRELCSLNQEDFFQRVPRGEIAWSHLELLRKY [L69A]: -0.311 ± 0.032; for GYRKEQERLGIPYDPIQWSTDQVLHWVVWVMKEFSMTDIDLTTLNISGRELCSLNQEDFFQRVPRGEIEWSHLELLRKY [L69E]: -0.934 ± 0.2; for GYRKEQERLGIPYDPIQWSTDQVLHWVVWVMKEFSMTDIDLTTLNISGRELCSLNQEDFFQRVPRGEIRWSHLELLRKY [L69R]: -0.977 ± 0.075. The result for GYRKEQERLGIPYDPIQWSTDQVLHWVVWVMKEFSMTDIDLTTLNISGRELCSLNQEDFFQRVPRGEISWSHLELLRKY [L69S] reads -0.882 ± 0.089; that for GYRKEQERLGIPYDPIQWSTDQVLHWVVWVMKEFSMTDIDLTTLNISGRELCSLNQEDFFQRVPRGEIPWSHLELLRKY [L69P], -1.06 ± 0.16. The same measure for GYRKEQERLGIPYDPIQWSTDQVLHWVVWVMKEFSMTDIDLTTLNISGRELCSLNQEDFFQRVPRGTILWSHLELLRKY [E67T]: -0.038 ± 0.05; for GYRKEQERLGIPYDPIQWSTDQVLHWVVWVMKEFSMTDIDLTTLNISGRELCSLNQEDFFQRVPRGPILWSHLELLRKY [E67P]: -0.239 ± 0.042.

Consider GYRKEQERLGIPYDPIQWSTDQVLHWVVWVMKEFSMTDIDLTTLNISGRELCSLNQEDFFQRVPRGIILWSHLELLRKY [E67I], for which the abundance fitness is -0.189 ± 0.09. Regarding GYRKEQERLGIPYDPIQWSTDQVLHWVVWVMKEFSMTDIDLTTLNISGRELCSLNQEDFFQRVPRGFILWSHLELLRKY [E67F], the abundance fitness was -0.249 ± 0.088.

Turning to GYRKEQERLGIPYDPIQWSTDQVLHWVVWVMKEFSMTDIDLTTLNISGRELCSLNQEDFFQRVPRGLILWSHLELLRKY [E67L], the abundance fitness was -0.249 ± 0.049. The result for GYRKEQERLGIPYDPIQWSTDQVLHWVVWVMKEFSMTDIDLTTLNISGRELCSLNQEDFFQRVPRGQILWSHLELLRKY [E67Q] reads -0.121 ± 0.08.

Turning to GYRKEQERLGIPYDPIQWSTDQVLHWVVWVMKEFSMTDIDLTTLNISGRELCSLNQEDFFQRVPRGWILWSHLELLRKY [E67W], the abundance fitness was -0.153 ± 0.05. GYRKEQERLGIPYDPIQWSTDQVLHWVVWVMKEFSMTDIDLTTLNISGRELCSLNQEDFFQRVPRGKILWSHLELLRKY [E67K]: the abundance fitness was 0.064 ± 0.12.

For the variant GYRKEQERLGIPYDPIQWSTDQVLHWVVWVMKEFSMTDIDLTTLNISGRELCSLNQEDFFQRVPRGAILWSHLELLRKY [E67A], the abundance fitness was -0.029 ± 0.039. GYRKEQERLGIPYDPIQWSTDQVLHWVVWVMKEFSMTDIDLTTLNISGRELCSLNQEDFFQRVPRGNILWSHLELLRKY [E67N]: the abundance fitness was -0.077 ± 0.098. As for GYRKEQERLGIPYDPIQWSTDQVLHWVVWVMKEFSMTDIDLTTLNISGRELCSLNQEDFFQRVPRGHILWSHLELLRKY [E67H], the abundance fitness stood at 0.004 ± 0.083. As to GYRKEQERLGIPYDPIQWSTDQVLHWVVWVMKEFSMTDIDLTTLNISGRELCSLNQEDFFQRVPRGVILWSHLELLRKY [E67V], the abundance fitness is -0.118 ± 0.036.

Consider GYRKEQERLGIPYDPIQWSTDQVLHWVVWVMKEFSMTDIDLTTLNISGRELCSLNQEDFFQRVPRGSILWSHLELLRKY [E67S], for which the abundance fitness was -0.057 ± 0.037.

For the variant GYRKEQERLGIPYDPIQWSTDQVLHWVVWVMKEFSMTDIDLTTLNISGRELCSLNQEDFFQRVPRGMILWSHLELLRKY [E67M], the abundance fitness is -0.147 ± 0.055. GYRKEQERLGIPYDPIQWSTDQVLHWVVWVMKEFSMTDIDLTTLNISGRELCSLNQEDFFQRVPRGRILWSHLELLRKY [E67R]: the abundance fitness is -0.101 ± 0.032. GYRKEQERLGIPYDPIQWSTDQVLHWVVWVMKEFSMTDIDLTTLNISGRELCSLNQEDFFQRVPRGDILWSHLELLRKY [E67D]: the abundance fitness is -0.133 ± 0.08. GYRKEQERLGIPYDPIQWSTDQVLHWVVWVMKEFSMTDIDLTTLNISGRELCSLNQEDFFQRVPRGCILWSHLELLRKY [E67C]: the abundance fitness is -0.19 ± 0.11. Consider GYRKEQERLGIPYDPIQWSTDQVLHWVVWVMKEFSMTDIDLTTLNISGRELCSLNQEDFFQRVPRGGILWSHLELLRKY [E67G], for which the abundance fitness is -0.027 ± 0.034.
